Experimental data: patent US8158851B2, “Transgenic high tryptophan plants” (Monsanto Technology LLC, priority 2002, dated 2012)
Substitutions are numbered along the chain they refer to. Where two headings read alike, the source gives them in different places.

Tests used:
[1] = target: T1, Rhizobium meliloti anthranilate synthase, monomeric (SEQ ID NO: 7) (Rhizobium meliloti, UniProt P15395); assay: Activity assay of crude cell extract by HPLC; type: biochemical; settings: BL-21 cells with pMON66596, HPLC, read-out: ICso (trp)
T1 construct: made in house; host or cells: E. coli BL-21, plasmid pMON66596 (pSE280)
T1 sequence (P15395 1-729): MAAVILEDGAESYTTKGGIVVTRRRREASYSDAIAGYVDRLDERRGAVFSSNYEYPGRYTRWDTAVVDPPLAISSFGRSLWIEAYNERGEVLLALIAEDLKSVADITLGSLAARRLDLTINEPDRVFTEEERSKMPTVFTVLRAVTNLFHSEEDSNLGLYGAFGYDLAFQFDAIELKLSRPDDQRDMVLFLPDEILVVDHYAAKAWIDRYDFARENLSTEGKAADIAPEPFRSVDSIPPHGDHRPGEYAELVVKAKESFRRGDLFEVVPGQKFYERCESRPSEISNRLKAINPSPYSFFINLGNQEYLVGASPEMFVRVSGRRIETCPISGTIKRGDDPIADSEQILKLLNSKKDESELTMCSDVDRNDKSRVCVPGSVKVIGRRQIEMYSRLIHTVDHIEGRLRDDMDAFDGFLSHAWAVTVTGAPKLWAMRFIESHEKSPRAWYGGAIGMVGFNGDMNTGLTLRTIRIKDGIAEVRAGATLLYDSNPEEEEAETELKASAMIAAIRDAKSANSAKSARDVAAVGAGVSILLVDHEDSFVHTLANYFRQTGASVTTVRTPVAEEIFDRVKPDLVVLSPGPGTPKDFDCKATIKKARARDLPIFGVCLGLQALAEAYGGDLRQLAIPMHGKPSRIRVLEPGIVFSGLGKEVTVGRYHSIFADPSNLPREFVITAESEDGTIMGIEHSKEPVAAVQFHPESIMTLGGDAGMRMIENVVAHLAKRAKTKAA
Description: pMON66596 was transformed into BL-21 cells and induced with IPTG to express protein.

[2] = tested on: Ruta graveolens anthranilate synthase; settings: Bohlmann et al. 1996; cited from earlier work
[3] = tested on: Agrobacterium tumefaciens AS; assay: Anthranilate synthase enzyme assay and kinetic analysis of purified enzymes; type: biochemical; settings: for Km: 25° C.
Experimental: Agrobacterium tumefaciens AS wild type and mutant enzymes were expressed in E. coli as described in Example 1. The purification of all the Agrobacterium tumefaciens AS enzymes, including wild type and mutants thereof, was performed at 4° C. The cells (approximate wet weight of 1 g) were suspended in 20 ml of purification buffer (50 mM potassium phosphate, pH 7.3, 10 mM MgCl2, 10 mM 2-mercaptoethanol, 10% glycerol) and lysed by ultrasonication (Branson sonifier Cell Disruptor, W185). Supernatant was collected after centrifugation of the homogenate at 20,000×g for 15 min. The supernatant was subjected to ammonium sulfate fractionation (30 to 65% saturation). The precipitate was collected after centrifugation at 20,000×g for 15 min and dissolved in 3 ml of the purification buffer and then loaded as a whole on an Econo-Pac 10DG desalting column, pre-equilibrated with the same buffer. Fractions containing the enzyme were detected by the developed assay and pooled. The pooled enzyme (4.3 mls) was loaded on a 10 ml DEAF Sephacel (Pharmacia Biotech) column (1.5×7.5 cm) equilibrated with the same buffer. The column was washed with 30 ml of the purification buffer and the enzyme was eluted with 30 ml of 50 mM NaCl in the same buffer. Fractions containing high AS activity were pooled and precipitated by 65% ammonium sulfate saturation and isolated and desalted as above. Fractions containing the enzyme were pooled and stored at −80° C.
The standard assay for Agrobacterium tumefaciens AS was performed at 25° C. in an assay buffer containing 100 mM potassium phosphate, pH 7.0, 10 mM MgCl2, 1 mM dithiothreitol, 200 μM chorismate and 10 mM L-glutamine. The reaction was started by adding 30 μl of enzyme to the reaction mixture and mixing. The formation of anthranilate was directly monitored by the absorbance increase at 320 m for 3 minutes. Initial rate of reaction was calculated as unit absorbance increase per second based on the slope of the absorbance change over the reaction time. Km for chorismate (Km^Cho) was determined in the total volume of 1 ml assay buffer containing 100 mM potassium phosphate, pH 7.0, 10 mM MgCl2, 1 mM dithiothreitol with 10 mM L-glutamine and varying the concentration of chorismate between 2.5-100 μM chorismate. The Km for glutamine (Km^Gln) was determined in the total volume of 1 ml assay buffer containing 100 mM potassium phosphate, pH 7.0, 10 mM MgCl2, 1 mM dithiothreitol with 200 μM chorismate and varying the concentration of L-glutamine between 0.1-2 mM L-glutamine. IC50 for tryptophan (IC50^Trp) was determined with in the total volume of 1 ml assay buffer containing 100 mM potassium phosphate, pH 7.0, 10 mM MgCl2, 1 mM dithiothreitol, 10 mM L-glutamine, 200 μM chorismate and varying the concentration of L-tryptophan between 0.1-10 mM L-tryptophan. Kinetic parameters and IC50 of AS were calculated after fitting the data to a non-linear regression program (GraFit).

Agro AS = Agro AS enzyme assay, HPLC end-point, desalted extracts of individual soybean seeds; type: biochemical, Agrobacterium tumefaciens; settings: R1 soy seeds carrying the mutant allele
Experimental: The specific activity of anthranilate synthase was measured in eleven transformation events carrying the pMON58120 construct. Individual soybean immature seeds were analyzed using an HPLC-based end-point assay based on the method described by C. Paulsen (J. Chromatogr., 547:155-160 (1991)). Briefly, desalted extracts were generated from individual seeds in grinding buffer (100 mM Tris pH7.5, 10% glycerol, 1 mM EDTA, 1 mM DTT) and incubated for 30 min with reaction buffer (100 mM tris pH 7.5, 1 mM chorismate, 20 mM glutamine, and 10 mM MgCl2). Agro AS activity was measured in the presence or absence of 25 mM trp. The reaction was stopped with phosphoric acid and the amount of anthranilate formed was quantified by HPLC using a fluorescence detector set at 340 nm/excitation and 410 nm/emission.

soy seed = assay: Free amino acid analysis of soy seed (tryptophan content); type: in vivo, Glycine max; settings: R1 soy seeds expressing the mutant protein
Experimental: Amino Acid Extraction: About 50 mg of crushed soy seed (5 mg of Arabidopsis) material was placed in each centrifuge vial. One milliliter of 5% trichloroacetic acid was added to each sample (100 μl for Arabidopsis). The samples were vortexed, and allowed to sit, with agitation, at room temperature for 15 min. They were then microcentrifuged for 15 min at 14000 rpm. Some of the supernatant was then removed, placed in a HPLC vial and sealed. Samples were kept at 4° C. in the analysis queue.
Amino Acid Analysis: The reagents utilized for amino acid analysis included the OPA reagent (o-phthalaldehyde and 3-mercaptopropionic acid in borate buffer (Hewlett-Packard, PN 5061-3335)) where the borate buffer (0.4 N in water, pH 10.2). The analysis was performed using the Agilent 1100 series HPLC system as described in the Agilent Technical Publication, “Amino Acid Analysis Using Zorbax Eclipse-AAA Columns and the Agilent 1100 HPLC”, Mar. 17, 2000. First, 0.5 μl of the sample was derivatized with 2.5 μl of OPA reagent in 10 μl of borate buffer. Second, the derivative is injected onto a Eclipse XDB-C18 5 μm, 4.6×150 mm column using a flow rate of 1.2 ml/min. Amino acid concentrations were measured using fluorescence: excitation at 340 nm, emission at 450 nm. Elution was with a gradient of HPLC Buffers A and B according to Table A, where HPLC Buffer A was 40 mM Na2HPO4, pH=7.8 and HPLC Buffer B was 9:9:2::Methanol:Acetonitrile:Water.
Amino acid standards were prepared from the dry chemicals, using all amino acids of interest. Proline analysis required an additional derivatization step with 9-fluorenylmethyl-chloroformate (FMOC). Amino acid standards were also sometimes purchased in concentrations ranging from 0 to 100 μg/ml. Samples were reported in μg/g of seed powder.
Mature R1 seed is produced and analyzed for free amino acid content using fluorescence detection as described in Agilent Technologies Technical Bulletin REV14. Five seeds are chosen for single seed analysis from each event. […] The highest levels of tryptophan have a negative impact on germination.

N[C@@H](Cc1c[nH]c2ccccc12)C(=O)O [tryptophan, L-tryptophan]
IC50 [1]: ~10 µM

B1: Ruta graveolens anthranilate synthase α-subunit: Ruta graveolens anthranilate synthase α-subunit isoenzyme, Genbank GI 960291 (protein, listed as Ruta graveolens)
chain: MSAAATSMQSLKFSNRLVPPSRRLSPVPNNVTCNNLPKSAAPVRTVKCCASSWNSTINGAAATTNGASAASNGASTTTTTYVSDATRFIDSSKRANLVPLYRCIFADHLTPVLAYRCLVQEDDKETPSFLFESVEPGRISTVGRYSVVGAHPVMEVIAKDNMVTVMDHEKGSLVEEVVDDPMEIPRRISEDWKPQIIDDLPEAFCGGWVGFFSYDTVRYVEKKKLPFSKAPQDDRNLADMHLGLYNDVIVFDHVEKKVYVIHWVRLNQQSSEEKAYAEGLEHLERLVSRVQDENTPRLAPGSIDLHTGHFGPPLKKSNMTCEEYKMAVLAAKEHIQAGDIFQIVLSQRFERRTFADPFEVYRALRVVNPSPYMTYMQARGCVLVASSPEILTRVKKNKIVNRPLAGTARRGRTTEEDEMLETQLLKDAKQCAEHVMLVDLGRNDVGKVSKSGSVKVEKLMNVERYSHVMHISSTVTGELQDNLSCWDALRAALPVGTVSGAPKVKAMELIDELEVNRRGPYSGGFGGISFTGDMDIALALRTIVFQTGTRYDTMYSYKNATKRRQWVAYLQAGAGIVADSDPDDEHRECQNKAAGLARAIDLAESAFVNKSSS
sensitivity to tryptophan inhibition [2]: less sensitive to tryptophan inhibition

B2: F298W (protein)
chain: MVTIIQDDGAETYETKGGIQVSRKRRPTDYANAIDNYIEKLDSHRGAVFSSNYEYPGRYTRWDTAIVDPPLGISCFGRKMWIEAYNGRGEVLLDFITEKLKATPDLTLGASSTRRLDLTVNEPDRVFTEEERSKIPTVFTALRAIVDLFYSSADSAIGLFGAFGYDLAFQFDAIKLSLARPEDQRDMVLFLPDEILVVDHYSAKAWIDRYDFEKDGMTTDGKSSDITPDPFKTTDTIPPKGDHRPGEYSELVVKAKESFRRGDLFEVVPGQKFMERCESNPSAISRRLKAINPSPYSWFINLGDQEYLVGASPEMFVRVSGRRIETCPISGTIKRGDDPIADSEQILKLLNSKKDESELTMCSDVDRNDKSRVCEPGSVKVIGRRQIEMYSRLIHTVDHIEGRLRDDMDAFDGFLSHAWAVTVTGAPKLWAMRFIEGHEKSPRAWYGGAIGMVGFNGDMNTGLTLRTIRIKDGIAEVRAGATLLNDSNPQEEEAETELKASAMISAIRDAKGTNSAATKRDAAKVGTGVKILLVDHEDSFVHTLANYFRQTGATVSTVRSPVAADVFDRFQPDLVVLSPGPGSPTDFDCKATIKAARARDLPIFGVCLGLQALAEAYGGELRQLAVPMHGKPSRIRVLEPGLVFSGLGKEVTVGRYHSIFADPATLPRDFIITAESEDGTIMGIEHAKEPVAAVQFHPESIMTLGQDAGMRMIENVVVHLTRKAKTKAA
modifications: An A. tumefaciens mutant.
Km ([3]; pH 7.0, 200 μM chorismate, L-glutamine varied, read-out: Km^Gln): 140 µM
Km ([3]; pH 7.0, 10 mM L-glutamine, chorismate varied, read-out: Km^Cho): 18 µM
IC50 ([3]; inhibition by L-tryptophan, 10 mM L-glutamine, 200 μM chorismate): 450 µM
kcat ([3]; purified enzyme from E. coli): 0.44 s⁻¹
tryptophan-resistant anthranilate synthase activity (Agro AS): Very high levels
amounts of tryptophan (soy seed): very high amounts of tryptophan

B3: S51F (protein)
chain: B2 chain with S51F, W298F
modifications: An A. tumefaciens mutant.
tryptophan-resistant anthranilate synthase activity (Agro AS): Very high levels
amounts of tryptophan (soy seed): very high amounts of tryptophan
